The results in this text go back to article PMC9803922, “Seawater fish use an electrogenic boric acid transporter, Slc4a11A, for boric acid excretion by the kidney” (The Journal of Biological Chemistry, 2022).

Substrate in this data set: OB(O)O
In words: two-electrode voltage clamp, boric acid-elicited currents in Xenopus oocytes. Particulars: total boric acid (B(OH)3 + B(OH)4-), Vh +60 mV, pH 7.5, 18 °C, Na+-independent electrogenic transport. Type of data set: cell-based, Takifugu obscurus. In general terms: In two-electrode clamp one electrode senses voltage and the other passes current.

B1: Slc4a11A (mfSlc4a11A) (Takifugu obscurus) (protein)
chain: MDMLSQEMELKDEKKEDYGEDSDAIHIYDTEAYISVSDPDRPGFGLLNTTRKYVKPMNFQEEVRAHRDLDNFLAQASILLDERATTLDEVLRRMLAHLLEEGRESCDPDEVMSSVFTDAGGKDFDVHLLSETIQGVTSTSTGIHYQQSWLCILTNLRSLQRRHVCIARLDRPQNWGVNCCEARYVIFILAPPRTKSTKTAIELGRTFATMFSDISFRQRLLETKTQEEFKQELLSYRQKLSTVQEKPVEEEEEDSDPRRGKALQCKDFLKAGKGVYRDLRRRLPLYPSDFTDGLTGKDRCLLKYTTTAIFLYIAILLPAIAFGSLNDESTRGEIDVQKTIVGQSIGGVIYALFAGSPLVIPLTTAPLAIFISVIRGICDDYDLDFDSFYACIGLWNSLFLILGGLFNVSLLMKLFKRSTEEVIALFISIAFVGDAVKGTVKIFQHFYRGPTLTTTNSTLVFQQLEGILNQTNNQTGNGLGEHGQADGHTLVFLPQSLVECTREMPILCLLLMLGTLWLGYTLYLIRRSPYLNDKIREVVSDCALPISVVICSFIGSYLFLNIKLPVFSVHDGPIFNYPPFDKLSGMSALSAVGLGFLLALLIFIDQNIVISLTHVPEHKLLKGTAFHWDLMLTGFINILMSCLGLPWMHAAFPHSSLHARQLAKVEQHVENGHLYTTIVSVKETRLTALAANILIGLSAFMLPIPLQWIPKPVLYGLFLYIAATSLDGNQMVDRMCLLLKEQTSYPPTHYVRRVPQRKVHFFTGVQMIQLIILCAFGMYPLPYMKMVFPLLMILLVPIRTSLLPKMIDAKYLDIMDAQHM
notes: full-length cDNA in pGEMHE, untagged, expressed in Xenopus laevis oocytes; 820 residues; C-terminal region antigen peptide PKMIDAKYLDIMDAQHM
The Km is the substrate concentration at which the rate is half of its maximum. Regarding B1, the Km was determined as 6.5 ± 0.6 mM.
